In paper PMC6436656 one finds response (BRET ratio (fold change)) data, which are given here for two molecules.

In the assay the target is human GPR35 (GPR35a splice variant), receptor part of the hGPR35 SPASM sensors, Q9HC97. Put plainly: BRET (hGPR35 SPASM sensor). Conditions: chain shown with the change, highest concentration, read off a plot. (BRET reads energy transfer from a luciferase to a nearby fluorophore.)
[1] abbreviates: bufrolin, 1e-6 M, parent: est. 1.1.
Setting [2] is: lodoxamide, 1e-6 M, parent: est. 1.1.
The mark [3] stands for this setting: pamoic acid, about 10^-5.5 M, parent: est. 1.0.
The mark [4] stands for this setting: zaprinast, 1e-4 M, parent: est. 1.1.

Sequence of human GPR35 (GPR35a splice variant), receptor part of the hGPR35 SPASM sensors, Q9HC97 (Q9HC97 whole entry, change not shown, canonical isoform): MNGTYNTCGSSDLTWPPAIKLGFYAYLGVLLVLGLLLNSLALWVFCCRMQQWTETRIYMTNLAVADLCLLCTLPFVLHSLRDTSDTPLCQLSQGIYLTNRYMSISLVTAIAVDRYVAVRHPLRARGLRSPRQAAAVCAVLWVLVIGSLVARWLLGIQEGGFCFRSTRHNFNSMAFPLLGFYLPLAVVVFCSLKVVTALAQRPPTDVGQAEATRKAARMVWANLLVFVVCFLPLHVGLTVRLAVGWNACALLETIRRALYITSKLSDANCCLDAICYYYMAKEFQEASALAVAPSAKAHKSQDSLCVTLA

As for DTENVRFVFHAVKDTILQENLKDLMLQ [final 27 aa of Gα12, G peptide of the hGPR35-Gα12 SPASM sensor, Q03113 G.H5.23 Ile to Leu], the response (BRET ratio (fold change)) reads like this: under setting [1], 1.4; under setting [2], 1.4; under setting [3], 1.1; under setting [4], 1.4.

As for DTENVRFVFHAVKDTILQENLKQIMLQ [final 27 aa of Gα12, G peptide of the hGPR35-Gα12 SPASM sensor, Q03113 G.H5.22 Asp to Gln], the response (BRET ratio (fold change)) came out at 1.1 under setting [1], 1.2 under setting [2], 1.1 under setting [3] and 1.2 under setting [4].
